Assay results from IntAct's records for PubMed 25752541.

B1: Ankyrin repeat family A protein 2 (Homo sapiens), Q9H9E1 (parent)
chain: MDTSTNLDIGAQLIVEECPSTYSLTGMPDIKIEHPLDPNSEEGSAQGVAMGMKFILPNRFDMNVCSRFVKSLNEEDSKNIQDQVNSDLEVASVLFKAECNIHTSPSPGIQVRHVYTPSTTKHFSPIKQSTTLTNKHRGNEVSTTPLLANSLSVHQLAAQGEMLYLATRIEQENVINHTDEEGFTPLMWAAAHGQIAVVEFLLQNGADPQLLGKGRESALSLACSKGYTDIVKMLLDCGVDVNEYDWNGGTPLLYAVHGNHVKCVKMLLESGADPTIETDSGYNSMDLAVALGYRSVQQVIESHLLKLLQNIKE
partner: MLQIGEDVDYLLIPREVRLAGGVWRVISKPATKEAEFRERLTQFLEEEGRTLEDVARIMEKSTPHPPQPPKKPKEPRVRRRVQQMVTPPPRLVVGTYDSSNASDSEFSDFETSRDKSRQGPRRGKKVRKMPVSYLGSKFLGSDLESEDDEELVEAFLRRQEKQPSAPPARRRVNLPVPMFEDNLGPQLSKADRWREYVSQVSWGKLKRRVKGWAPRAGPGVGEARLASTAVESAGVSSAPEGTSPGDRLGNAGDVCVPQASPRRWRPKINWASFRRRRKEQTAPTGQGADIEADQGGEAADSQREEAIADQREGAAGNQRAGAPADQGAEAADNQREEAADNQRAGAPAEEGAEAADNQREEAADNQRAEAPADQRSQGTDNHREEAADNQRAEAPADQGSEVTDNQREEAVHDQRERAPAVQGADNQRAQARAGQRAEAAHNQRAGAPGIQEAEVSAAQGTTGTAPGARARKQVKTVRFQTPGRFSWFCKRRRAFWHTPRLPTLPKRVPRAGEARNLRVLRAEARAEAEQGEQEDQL
B2: Coiled-coil domain-containing protein 8 (Homo sapiens), Q9H0W5 (parent)
chain: B1 partner
partner: B1 chain

Variants of: B1
Settings: with ccdc8_human CCDC8, Q9H0W5

| effect of a mutation on the interaction | Variant |
| --- | --- |
| disrupting interaction strength | W188A |
| with no effect | K31R |

Variants of: B2
Settings: with anra2_human ANKRA2, Q9H9E1

| effect of a mutation on the interaction | Variant |
| --- | --- |
| disrupting interaction strength | P503A |
| disrupting interaction strength | T504A |
